B1: SMG5 (parent)
chain: FVSIAQSEQESLLQQAQAQFRMAQ
B2: TRIM39 (parent)
chain: ERDFPCPVCRKTSRYRSLRPNRQL

Variants of: B1
Assay: protein stability index of a GFP-peptide fusion (GPS, HEK-293T) (PSI 1-6); higher = more stable
Settings: c terminus: a fixed tail appended
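Also: lentivirally expressed fusions sorted by FACS into six bins by GFP to DsRed ratio, PSI derived from sequencing read proportions per bin multiplied by bin number.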

Protein stability index of substitutions, site by site:
Q14: N 2.59 | C 1.79 | L 2.4 | I 2.25 | P 2.17 | T 2.09 | W 2.52 | D 2.4 | R 2.21 | E 2.88 | M 2.18 | G 2.77 | F 1.84 | V 1.64 | Y 1.7 | S 2.54 | A 2.11 | H 2.4 | K 2.79
Q19: V 2.13 | S 1.81 | R 3.17 | E 2.82 | H 1.66 | Y 1.08 | F 1.35 | M 2.09 | A 1.87 | L 2.47 | T 1.98 | G 2.08 | C 1.93 | D 2.27 | P 1.81 | I 2.33 | K 1.96 | N 1.97
L13: Q 2.6 | E 2.13 | P 3.08 | D 3 | H 3.08 | I 2.87 | K 2.52 | C 2.88 | N 2.74 | F 1.5 | M 2.66 | R 2.07 | T 2.28 | S 2.74 | W 2.19 | Y 1.31 | V 2.68
Q24: G 1.71 | F 2.48 | D 2.12 | C 1.94 | E 2.74 | K 2.65 | P 2.38 | S 2.65 | W 2.76 | N 2.24 | Y 2.1 | V 1.63 | H 1.92 | L 2.4 | A 2.15 | R 2.57 | T 2.08 | I 2.11 | M 1.88
F20: S 2.57 | E 3.12 | C 2.22 | I 2.48 | G 3.13 | P 2.75 | Q 2.5 | D 3.06 | K 2.59 | N 2.5 | V 2.37 | H 3.04 | W 1.82 | M 2.29 | L 2.08 | A 2.44 | R 2.32 | Y 2.49 | T 3.17
A23: C 2.1 | V 2.02 | Y 2.16 | E 2.85 | I 2.22 | L 2.4 | M 2.17 | H 2.85 | W 2.58 | Q 2.29 | G 2.46 | T 2.33 | D 2.21 | R 2.26 | P 1.91 | K 2.12 | F 1.75 | N 2.12 | S 2.31
Q17: W 1.39 | P 3.35 | M 2.13 | I 2.02 | L 2.04 | C 1.76 | K 2.33 | A 1.95 | T 1.73 | R 3.07 | V 2.03 | F 1.85 | S 2.48 | D 2.37 | Y 1.8 | N 2.33 | H 1.91 | E 2.22 | G 2.17
R21: G 2.08 | D 2.48 | A 2.27 | V 2.56 | M 1.89 | H 2.4 | F 1.92 | I 1.76 | S 1.82 | N 1.94 | L 2.43 | W 3.6 | T 2.32 | K 2.59 | Q 2.6 | P 2.17 | E 2.64 | Y 2.63 | C 1.44
A18: C 1.98 | G 1.89 | E 2.48 | M 1.7 | W 1.94 | T 2.3 | D 2.37 | F 1.74 | L 2.14 | Y 2.86 | R 2.54 | S 2.74 | V 1.52 | Q 2.04 | I 2.54 | N 3.02 | K 2.79 | P 1.98 | H 2.19
M22: F 2.2 | T 2.5 | I 2.14 | D 2.68 | W 2.4 | P 2.25 | N 1.94 | C 3.04 | A 2.43 | V 2.61 | L 2.01 | G 2.3 | R 2.7 | E 2.57 | Y 2.13 | Q 2.05 | K 2.13 | S 2.92 | H 2.26
A16: I 2.16 | G 2.09 | E 2.43 | K 1.68 | M 2.2 | F 2.47 | Q 2.55 | P 1.88 | T 2.69 | N 2.37 | W 1.94 | Y 1.86 | S 1.94 | L 1.73 | R 2.53 | D 2.44 | C 1.36 | H 2.56 | V 1.78
Q15: T 1.59 | E 2.32 | G 2.55 | A 1.44 | S 2.27 | M 2.12 | C 1.85 | K 2.22 | Y 2.17 | R 2.44 | P 2.28 | I 2.21 | N 2.5 | W 2.55 | F 1.4 | V 2.34 | D 2.55 | L 1.61 | H 2.24

Variants of: B2
Assay: as above
Settings: c terminus: a fixed tail appended

Protein stability index, by site and new letter:
C6: M 3.1 | H 3.61 | A 2.69 | Y 3.21 | K 3.13 | G 3.97 | T 3.02 | L 3.19 | Q 3.24 | D 3.74 | F 2.03 | V 3.23 | S 3.17 | I 3.24 | W 2.01
R2: T 1.91 | E 2.06 | F 1.83 | V 3.06 | S 1.9 | Y 2.22 | Q 2.27 | M 2.28 | D 2.1 | G 1.57 | L 1.63 | K 2.02 | H 2.33 | W 2.18 | I 2.06 | P 1.78 | N 1.86 | A 2.13 | C 2.01
F4: K 2.86 | E 2.02 | Y 2.84 | I 2.35 | N 2.89 | G 2.3 | D 2.93 | Q 2.13 | L 2.1 | H 3.14 | T 1.82 | M 2.48 | S 1.81 | P 2.41 | C 2.12 | V 2.39 | R 2.09
D3: F 2.93 | M 2.56 | R 1.99 | K 2.64 | C 2.08 | E 1.64 | G 1.6 | Q 2.62 | N 2.5 | L 1.96 | W 2.15 | I 1.39 | T 1.84 | S 2.64 | P 2.06 | A 2.2 | Y 1.42 | H 1.78 | V 2.48
P7: C 1.94 | A 2.2
P5: M 2.26 | N 1.84 | D 2.49 | Y 2 | F 1.81 | K 2.72 | T 2.93 | E 1.76 | H 3.7 | Q 1.18 | G 1.67 | V 2.29 | L 3 | A 1.74 | W 1.87 | I 2.91 | S 2.04 | C 2.9
E1: R 2.71 | F 2.14 | A 2.16 | H 2.03 | P 2.93 | I 2.19 | D 2.4 | C 2.2 | L 2.34 | S 2.25 | G 1.83 | N 2.01 | W 2.4 | Q 2.06 | K 1.77 | M 2.16 | Y 1.66 | V 2.06 | T 2.71
